Test results taken from the supplement of paper PMC9170038.

Legend:
MS2 coat protein [1] = test: apparent KD of MS2 coat protein, switch ON state; designed switch direction (-1 OFF switch, 1 ON switch): 1; higher = weaker reporter binding; conditions: FMN input: 0 or 200 uM; Eterna round: R93 (includes R88 designs)
In short: (§1)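 Designed RNA switches were transcribed on-chip from Illumina sequencing clusters. SNAP-549-labelled MS2 coat protein was titrated onto them in twofold steps from 0.7 or 1.5 nM to 3 µM in 100 mM Tris-HCl pH 7.5, 80 mM KCl, 4 mM MgCl2, either without or with constant ligand. Apparent KD reflects the per-design median of normalised cluster binding-curve fits.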

MS2 coat protein [2] = test: apparent KD of MS2 coat protein, switch OFF state (with FMN for OFF switches, without FMN for ON switches); designed switch direction (-1 OFF switch, 1 ON switch): 1; higher = weaker reporter binding; conditions: FMN input: 0 or 200 uM; Eterna round: R93 (includes R88 designs)
In short: as §1

In the case of “GGGAGACAUGAGGAUCACCCAUGUGAGAAGAGGCGAGGAUAUCGAAAGAAAGAAGAGAAACGAGAAGGCGCGAGUC [salish99-SS1-062]”, the “apparent KD of MS2 coat protein” value (MS2 coat protein [1]) is reported as 45.2 nM and the “apparent KD of MS2 coat protein” value (MS2 coat protein [2]) is reported as 63.4 nM.

“GUGGCCCAGGCACAGGAUAUGUUUCUCGUAACAUGAGGAUCACCCAUGUGCCUAUGAGAUUUAAUGCAGAAGGGUGCACGCCACG [Atiinbe]” was tested, and the “apparent KD of MS2 coat protein” value (MS2 coat protein [1]) was 16.4 nM and the “apparent KD of MS2 coat protein” value (MS2 coat protein [2]) was 342 nM.

With “GUGUAUAGCCUCGAGGAUAUCCUGUAAUGCACAUGAGGAUCACCCAUGUAUGAGCGAGUUUUUUGGGAGAAGGCGAGUUAUCGGU [JR_SS002_Sub1709]” the “apparent KD of MS2 coat protein” value (MS2 coat protein [1]) was 12.9 nM and the “apparent KD of MS2 coat protein” value (MS2 coat protein [2]) was 24.2 nM.

With “UAAAAAACGUAUGAGGAUAUCCAAAAUAAAACAUGAGGAUCACCCAUGUGAAUAAAAUAACAAUGGGAGAAGGCAUACGUAUCAU [Mat - Same state - Malcolm Mod - D138]” the “apparent KD of MS2 coat protein” value (MS2 coat protein [1]) was 46.3 nM and the “apparent KD of MS2 coat protein” value (MS2 coat protein [2]) was 20.8 nM.

With “UAAAAACAUGAGGAUCACCCAUGUAAGAUAAACACAGGAUAUGCGAAAAGAAACAAAGAAGCAGAAGGGUGAAAAU [Mat - Same State 1 - Tesla mod - 44]” the “apparent KD of MS2 coat protein” value (MS2 coat protein [1]) was 17.3 nM and the “apparent KD of MS2 coat protein” value (MS2 coat protein [2]) was 64.8 nM.

“UAAAAACAUGAGGAUCACCCAUGUAGAAAUAUGGGAGGAUAUACAAAGACGAAAGUCAAAGUAGAAGGCCUGAAAU [Mat - Same State 1 - Eli mod - 85]” was tested, and the “apparent KD of MS2 coat protein” value (MS2 coat protein [1]) was 21.5 nM and the “apparent KD of MS2 coat protein” value (MS2 coat protein [2]) was 88.7 nM.

“UAACAACAUGAGGAUCACCCAUGUCAAACAGAUCGAGGAUAUGGGCAGGGUUUUCCCUAACUAGAAGGCGAAGACA [Leinxeerri]” was tested, and the “apparent KD of MS2 coat protein” value (MS2 coat protein [1]) was 71.1 nM and the “apparent KD of MS2 coat protein” value (MS2 coat protein [2]) was 181 nM.

In the case of “UACACGCGGGCGCAGGAUAUGUCGCUGGUGACAUGAGGAUCACCCAUGUAUACCAUUGCGGUUGAGCAGAAGGGUGAGAAGCGUG [Raanlaza]”, the “apparent KD of MS2 coat protein” value (MS2 coat protein [1]) is reported as 20.4 nM and the “apparent KD of MS2 coat protein” value (MS2 coat protein [2]) is reported as 56.3 nM.

“UAUCAUUACACGAAGGAUAUCGAUAAUAGAACAUGAGGAUCACCCAUGUGAAAUAAAAUACAGAACGAGAAGGUCGAGGGUGAAG [JR_SS002_Sub703]” was tested, and the “apparent KD of MS2 coat protein” value (MS2 coat protein [1]) was 19.7 nM and the “apparent KD of MS2 coat protein” value (MS2 coat protein [2]) was 16.8 nM.

For “UAUCAUUACACGAAGGAUAUCGAUAAUUGAACAUGAGGAUCACCCAUGUGCCAUUCUUUACAGUUCGAGAAGGUCGAGGGUGAAG [JR_SS002_Sub708]”, the “apparent KD of MS2 coat protein” value (MS2 coat protein [1]) was 72.7 nM and the “apparent KD of MS2 coat protein” value (MS2 coat protein [2]) was 83.5 nM.

With “UGAAGACAUGAGGAUCACCCAUGUGGGAUUAUGGGAGGAUAUACAAAGACGAGAGUCAGAGUAGAAGGCCUAGGAA [salish99-ss1-116(!)]” the “apparent KD of MS2 coat protein” value (MS2 coat protein [1]) was 36.1 nM and the “apparent KD of MS2 coat protein” value (MS2 coat protein [2]) was 68 nM.

In the case of “UGAAGACAUGAGGAUCACCCAUGUGGGAUUAUGGGAGGAUAUACAAAGACGAGAGUCAGAGUAGAAGGCCUAGGAC [salish99-ss1-119(!)]”, the “apparent KD of MS2 coat protein” value (MS2 coat protein [1]) is reported as 32.2 nM and the “apparent KD of MS2 coat protein” value (MS2 coat protein [2]) is reported as 72.9 nM.

In the case of “UGGAGACAUGAGGAUCACCCAUGUGAGAAGAGGCGAGGAUAUCGAAAGAAAGAAGAGAAACGAGAAGGCGCGAGGG [salish99-SS1-043]”, the “apparent KD of MS2 coat protein” value (MS2 coat protein [1]) is reported as 49.7 nM and the “apparent KD of MS2 coat protein” value (MS2 coat protein [2]) is reported as 52.1 nM.

For “UGGAGACAUGAGGAUCACCCAUGUGAGAAGAGGCGAGGAUAUCGAAAGAAAGAAGAGAAACGAGAAGGCGCGAGUA [salish99-SS1-038]”, the “apparent KD of MS2 coat protein” value (MS2 coat protein [1]) was 32.1 nM and the “apparent KD of MS2 coat protein” value (MS2 coat protein [2]) was 39.3 nM.

In the case of “UUGCAGUACGGGUAGGAUAUGUAGGGUGGUACAUGAGGAUCACCCAUGUGUCCACCCUUCGACCGGCAGAAGGGCCUGUCACUGC [Lerieseser]”, the “apparent KD of MS2 coat protein” value (MS2 coat protein [1]) is reported as 17.5 nM and the “apparent KD of MS2 coat protein” value (MS2 coat protein [2]) is reported as 17.3 nM.

“UUUAAUUAUACGAAGGAUAUCGGUAAUUAGACAUGAGGAUCACCCAUGUUAUAAGGUUCCAUAUUCGAGAAGGUCGCGGGUGAAC [JR_SS002_Sub509]” was tested, and the “apparent KD of MS2 coat protein” value (MS2 coat protein [1]) was 16.1 nM and the “apparent KD of MS2 coat protein” value (MS2 coat protein [2]) was 18.2 nM.

With “UUUAAUUAUACGAAGGAUAUCGGUAAUUAGACAUGAGGAUCACCCAUGUUAUAUGGUUAAAUAUUCGAGAAGGUCGAGGGUGAAA [JR_SS002_Sub506]” the “apparent KD of MS2 coat protein” value (MS2 coat protein [1]) was 30.2 nM and the “apparent KD of MS2 coat protein” value (MS2 coat protein [2]) was 32.1 nM.

For “UUUAAUUAUACGAAGGAUAUCGGUAAUUAGACAUGAGGAUCACCCAUGUUAUAUGGUUAAAUAUUCGAGAAGGUCGCGGGUGAAC [JR_SS002_Sub507]”, the “apparent KD of MS2 coat protein” value (MS2 coat protein [1]) was 47.8 nM and the “apparent KD of MS2 coat protein” value (MS2 coat protein [2]) was 33.6 nM.

In the case of “UUUAGCUGCGGGCAGGAUAUGUAUUAAAAUACAUGAGGAUCACCCAUGUGCAGGUGUAACACCUGACAGAAGGGCCAAUCGCGGC [Bequre]”, the “apparent KD of MS2 coat protein” value (MS2 coat protein [1]) is reported as 25 nM and the “apparent KD of MS2 coat protein” value (MS2 coat protein [2]) is reported as 193 nM.
